Target: the molecule itself
Experiment: X-ray crystal structure of apo FAPα (SEQ ID NO:3), homodimer

B1: FAPα (SEQ ID NO:3), secreted recombinant human fibroblast activation protein alpha, residues 27-760 of SEQ ID NO:1 with part of the gp67 signal sequence at the … (enzyme)
chain: ADPGRPSRVHNSEENTMRALTLKDILNGTFSYKTFFPNWISGQEYLHQSADNNIVLYNIETGQSYTILSNRTMKSVNASNYGLSPDRQFVYLESDYSKLWRYSYTATYYIYDLSNGEFVRGNELPRPIQYLCWSPVGSKLAYVYQNNIYLKQRPGDPPFQITFNGRENKIFNGIPDWVYEEEMLATKYALWWSPNGKFLAYAEFNDTDIPVIAYSYYGDEQYPRTINIPYPKAGAKNPVVRIFIIDTTYPAYVGPQEVPVPAMIASSDYYFSWLTWVTDERVCLQWLKRVQNVSVLSICDFREDWQTWDCPKTQEHIEESRTGWAGGFFVSTPVFSYDAISYYKIFSDKDGYKHIHYIKDTVENAIQITSGKWEAINIFRVTQDSLFYSSNEFEEYPGRRNIYRISIGSYPPSKKCVTCHLRKERCQYYTASFSDYAKYYALVCYGPGIPISTLHDGRTDQEIKILEENKELENALKNIQLPKEEIKKLEVDEITLWYKMILPPQFDRSKKYPLLIQVYGGPCSQSVRSVFAVNWISYLASKEGMVIALVDGRGTAFQGDKLLYAVYRKLGVYEVEDQITAVRKFIEMGFIDEKRIAIWGWSYGGYVSSLALASGTGLFKCGIAVAPVSSWEYYASVYTERFMGLPTKDDNLEHYKNSTVMARAEYFRNVDYLLIHGTADDNVHFQNSAQIAKALVNAQVDFQAMWYSDQNHGLSGLSTNHLYTHMTHFLKQCFSLSDHHHHHH
modifications: three Asn residues (chain A) or five Asn residues (chain B) carry covalently linked sugar molecules; positions not given
notes: Only residues 39-757 are seen in the structure; Expressed in Hi5 insect cells; also called Seprase; apo FAPα
B1: binds.

Source: patent US7297508 (Takeda / Millennium, dated 2007)
